Data published in publication PMC2114023 (The Journal of Cell Biology, 1985).

Molecular target: clathrin heavy chain (bovine brain) (bovine, UniProt P49951 1-1675, 3H-labelled by reductive methylation)
Experiment: co-IP

Sequence of clathrin heavy chain (bovine brain) (P49951 whole entry): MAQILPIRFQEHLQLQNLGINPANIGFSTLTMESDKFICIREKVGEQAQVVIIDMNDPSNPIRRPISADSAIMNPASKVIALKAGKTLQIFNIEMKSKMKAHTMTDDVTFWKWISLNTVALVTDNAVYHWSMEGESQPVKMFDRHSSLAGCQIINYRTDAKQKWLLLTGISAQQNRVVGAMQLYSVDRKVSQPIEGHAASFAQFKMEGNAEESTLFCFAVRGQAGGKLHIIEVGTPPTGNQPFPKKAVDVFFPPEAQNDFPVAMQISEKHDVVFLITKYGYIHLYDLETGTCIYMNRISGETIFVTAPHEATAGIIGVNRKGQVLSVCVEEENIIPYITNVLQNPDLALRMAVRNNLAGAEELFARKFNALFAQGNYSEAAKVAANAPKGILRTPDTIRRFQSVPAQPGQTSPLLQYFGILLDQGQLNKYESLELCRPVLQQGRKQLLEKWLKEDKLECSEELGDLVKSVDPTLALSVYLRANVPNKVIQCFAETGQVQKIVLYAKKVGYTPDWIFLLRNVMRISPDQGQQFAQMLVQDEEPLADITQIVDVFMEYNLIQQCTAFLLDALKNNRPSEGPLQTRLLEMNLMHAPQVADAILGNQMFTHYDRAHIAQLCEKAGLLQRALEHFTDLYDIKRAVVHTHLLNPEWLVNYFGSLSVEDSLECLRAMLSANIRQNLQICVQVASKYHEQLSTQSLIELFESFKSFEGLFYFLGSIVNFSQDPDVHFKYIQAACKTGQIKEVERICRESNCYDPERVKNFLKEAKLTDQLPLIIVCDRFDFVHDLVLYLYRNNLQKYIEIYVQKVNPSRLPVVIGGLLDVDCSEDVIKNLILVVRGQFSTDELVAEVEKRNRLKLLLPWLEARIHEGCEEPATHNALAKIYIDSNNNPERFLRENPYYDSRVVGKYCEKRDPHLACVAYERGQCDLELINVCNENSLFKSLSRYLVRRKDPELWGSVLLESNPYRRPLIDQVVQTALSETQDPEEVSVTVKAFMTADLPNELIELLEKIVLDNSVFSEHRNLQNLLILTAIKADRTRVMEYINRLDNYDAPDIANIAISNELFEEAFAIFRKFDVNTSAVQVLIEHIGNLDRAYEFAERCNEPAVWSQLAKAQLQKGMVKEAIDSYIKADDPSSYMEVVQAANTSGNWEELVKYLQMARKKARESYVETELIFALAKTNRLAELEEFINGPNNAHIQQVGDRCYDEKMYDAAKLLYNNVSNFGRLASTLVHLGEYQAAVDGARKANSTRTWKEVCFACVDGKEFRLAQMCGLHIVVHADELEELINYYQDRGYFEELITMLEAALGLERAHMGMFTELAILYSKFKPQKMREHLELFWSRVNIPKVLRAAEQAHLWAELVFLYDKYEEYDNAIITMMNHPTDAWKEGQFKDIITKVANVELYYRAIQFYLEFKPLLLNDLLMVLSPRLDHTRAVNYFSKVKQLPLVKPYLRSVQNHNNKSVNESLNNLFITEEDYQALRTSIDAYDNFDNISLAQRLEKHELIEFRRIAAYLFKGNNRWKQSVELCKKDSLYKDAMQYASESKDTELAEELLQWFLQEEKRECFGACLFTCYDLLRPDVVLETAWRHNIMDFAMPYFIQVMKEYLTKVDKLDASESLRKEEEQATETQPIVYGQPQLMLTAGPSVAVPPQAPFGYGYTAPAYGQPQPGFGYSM

B1: clathrin light chain LCa (bovine brain) (natural protein, UniProt P04973 1-243, looked up)
chain: MAELDPFGVPAGGPALGNGVAGEEDPAAAFLAQQESEIAGIENDEAFAILDGGAPGSQPHGEPPGIPDAVDGVTNGDYYQESNGPTDSYAAISQVDRLQSEPESIRKWREEQTERLEALDANSRKQEAEWKEKAIKELDEWYARQDEQLQKTKANNRVADEAFYKQPFADVIGYVTNINHPCYSLEQAAEEAFVNDIEESSPGTEWERVARLCDFNPKSSKQAKDVSRMRSVLISLKQAPLVH
  binding result: binds
